Measured values reported in US20230272035A1 (VYCELLIX, published 2023).

Target: T1, CD45 (receptor-type tyrosine-protein phosphatase C, PTPRC) (Homo sapiens, UniProt P08575 26-1306)
T1 construct: In the lysis assays CD45 is the endogenous protein on human PBMCs or NK92 effector cells; also called all isoforms of CD45
T1 sequence: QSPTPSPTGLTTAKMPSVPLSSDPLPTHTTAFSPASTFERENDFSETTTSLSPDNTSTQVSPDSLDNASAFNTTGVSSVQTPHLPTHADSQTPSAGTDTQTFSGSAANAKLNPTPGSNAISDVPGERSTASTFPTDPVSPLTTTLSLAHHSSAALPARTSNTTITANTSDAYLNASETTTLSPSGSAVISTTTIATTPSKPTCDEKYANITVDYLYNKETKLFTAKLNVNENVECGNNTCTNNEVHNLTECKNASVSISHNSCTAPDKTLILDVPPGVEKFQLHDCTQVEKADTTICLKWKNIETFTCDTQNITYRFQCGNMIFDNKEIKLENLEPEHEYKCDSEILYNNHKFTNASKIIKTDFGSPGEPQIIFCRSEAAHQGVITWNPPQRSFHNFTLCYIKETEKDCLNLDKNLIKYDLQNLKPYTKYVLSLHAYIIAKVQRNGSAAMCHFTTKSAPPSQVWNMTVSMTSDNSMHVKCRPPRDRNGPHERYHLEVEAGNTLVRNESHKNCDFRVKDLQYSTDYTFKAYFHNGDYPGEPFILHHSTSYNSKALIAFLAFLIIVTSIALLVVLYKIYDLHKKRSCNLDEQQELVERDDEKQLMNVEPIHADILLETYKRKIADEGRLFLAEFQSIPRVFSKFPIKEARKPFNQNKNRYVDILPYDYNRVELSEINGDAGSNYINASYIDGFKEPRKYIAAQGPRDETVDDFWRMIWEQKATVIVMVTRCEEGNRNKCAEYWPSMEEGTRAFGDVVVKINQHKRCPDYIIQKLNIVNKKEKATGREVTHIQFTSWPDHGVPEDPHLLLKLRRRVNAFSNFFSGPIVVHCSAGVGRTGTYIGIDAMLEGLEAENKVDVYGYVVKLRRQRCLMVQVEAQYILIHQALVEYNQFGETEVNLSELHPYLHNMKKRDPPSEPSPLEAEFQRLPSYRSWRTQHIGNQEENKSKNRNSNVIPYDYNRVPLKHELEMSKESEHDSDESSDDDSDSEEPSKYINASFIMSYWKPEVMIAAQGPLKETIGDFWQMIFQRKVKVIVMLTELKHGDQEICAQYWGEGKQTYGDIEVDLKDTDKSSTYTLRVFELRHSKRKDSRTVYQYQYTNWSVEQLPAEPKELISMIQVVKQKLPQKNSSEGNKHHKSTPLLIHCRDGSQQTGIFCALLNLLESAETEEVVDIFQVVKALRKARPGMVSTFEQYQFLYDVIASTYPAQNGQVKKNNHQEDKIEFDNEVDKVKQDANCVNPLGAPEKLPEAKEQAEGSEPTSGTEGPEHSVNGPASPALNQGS
Assay: not described; same paragraph: immunoprecipitation studies reveal a physical interaction

B1: HCMV (Merlin strain; HHV5) protein UL11 (other)
chain: CIPVVGKIGTNVTLNAVDVLPPRDQVRWSYGPGGQGYMLCIFTGTSTTTFNNTRFNFSCLSNYSLLLINVTTQYSTTYRTMTSLDHWLHQRHNHGSRWTLDTCYNLTVNENGTFPTTTTKKPTTTTRTTTTTTQRTTTTRTTTTAKKTTISTTHHKHPSPKKSTTPNSHVEHHVGFEATAAETPLQPSPQHQHLATHALWVLAVVIVIIIIIIFYFRIPQKLWLLWQHDKHGIVLIPQTDL
notes: also called ULll
Does B1 bind?
Result: binds

B2: a-CD45-sc (membrane-bound anti-CD45 single chain antibody with CD8a/CD28 stalk and CD34 transmembrane region) (scFv)
scFv: QVQLVESGGGLVQPGGSLKLSCAASGFDFSRYWMSWVRQAPGKGLEWIGEINPTSSTINFTPSLKDKVFISRDNAKNTLYLQMSKVRSEDTALYYCARGNYYRYGDAMDYWGQGTSVTVSKISGGGGSGGGGSGGGGSGGGGSGGGGSSDIVLTQSPASLAVSLGQRATISCRASKSVSTSGYSYLHWYQQKPGQPPKLLIYLASNLESGVPARFSGSGSGTDFTLNIHPVEEEDAATYYCQHSRELPFTFGSGTKLEIKSSGSGSPTTTPAPRPPTPAPTIASQPLSLRPEACRPAAGGAVHTRGLDFAPRKIEVMYPPPYLDNEKSNGTIIHVKGKHLCPSPLFPGPSKPTLIALVTSGALLAVLGITGYFL
notes: The molecule was expressed on the surface of K562 target cells; also called anti-CD45-sc; ai-CD45-sc
Does B2 bind?
Result: binds
